Measured values from the supplement of paper PMC5998384.

How the values were obtained:
HeLa Kyoto [1] = test: solubility change mitosis vs G1/S (difference of NP-40 vs SDS log2 ratios) (log2 ratio difference); higher = more soluble in mitosis
HeLa Kyoto [2] = test: solubility in G1/S (NP-40 vs SDS abundance) (log2 ratio); higher = more soluble; details: cell cycle stage: G1/S
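For solubility change mitosis vs G1/S (difference of NP-40 vs SDS log2 ratios) in this document: synchronized HeLa Kyoto cells (double thymidine block for G1/S, nocodazole release for mitosis), protein amounts in NP-40 versus SDS lysates quantified by mass spectrometry, three biological replicates.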
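For solubility in G1/S (NP-40 vs SDS abundance) in this document: HeLa Kyoto cells arrested at G1/S by double thymidine block, proteins quantified by TMT10plex mass spectrometry in mild NP-40 versus SDS extracts, three biological replicates.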

| Sequence | solubility change mitosis (log2) (HeLa Kyoto [1]) | solubility in G1/S (log2) (HeLa Kyoto [2]) |
| --- | --- | --- |
| MLGTLRAMEGEDVEDDQLLQKLRASRRRFQRRMQRLIEKYNQPFEDTPVVQMATLTYETPQGLRIWGGRLIKERNEGEIQDSSMKPADRTDGSVQAAAWGPELPSHRTVLGADSKSGEVDATSDQEESVAWALAPAVPQSPLKNELRRKYLTQVDILLQGAEYFECAGNRAGRDVRVTPLPSLASPAVPAPGYCSRISRKSPGDPAKPASSPREWDPLHPSSTDMALVPRNDSLSLQETSSSSFLSSQPFEDDDICNVTISDLYAGMLHSMSRLLSTKPSSIISTKTFIMQNWNSRRRHRYKSRMNKTYCKGARRSQRSSKENFIPCSEPVKGTGALRDCKNVLDVSCRKTGLKLEKAFLEVNRPQIHKLDPSWKERKVTPSKYSSLIYFDSSATYNLDEENRFRTLKWLISPVKIVSRPTIRQGHGENRQREIEIRFDQLHREYCLSPRNQPRRMCLPDSWAMNMYRGGPASPGGLQGLETRRLSLPSSKAKAKSLSEAFENLGKRSLEAGRCLPKSDSSSSLPKTNPTHSATRPQQTSDLHVQGNSSGIFRKSVSPSKTLSVPDKEVPGHGRNRYDEIKEEFDKLHQKYCLKSPGQMTVPLCIGVSTDKASMEVRYQTEGFLGKLNPDPHFQGFQKLPSSPLGCRKSLLGSTAIEAPSSTCVARAITRDGTRDHQFPAKRPRLSEPQGSGRQGNSLGASDGVDNTVRPGDQGSSSQPNSEERGENTSYRMEEKSDFMLEKLETKSV [HJURP] | 0.197 | -0.154 |
| MLLGLAAMELKVWVDGIQRVVCGVSEQTTCQEVVIALAQAIGQTGRFVLVQRLREKERQLLPQECPVGAQATCGQFASDVQFVLRRTGPSLAGRPSSDSCPPPERCLIRASLPVKPRAALGCEPRKTLTPEPAPSLSRPGPAAPVTPTPGCCTDLRGLELRVQRNAEELGHEAFWEQELRREQAREREGQARLQALSAATAEHAARLQALDAQARALEAELQLAAEAPGPPSPMASATERLHQDLAVQERQSAEVQGSLALVSRALEAAERALQAQAQELEELNRELRQCNLQQFIQQTGAALPPPPRPDRGPPGTQGPLPPAREESLLGAPSESHAGAQPRPRGGPHDAELLEVAAAPAPEWCPLAAQPQAL [RASSF7] | 0.0497 | 0.299 |
| MLLSVTSRPGISTFGYNRNNKKPYVSLAQQMAPPSPSNSTPNSSSGSNGNDQLSKTNLYIRGLQPGTTDQDLVKLCQPYGKIVSTKAILDKTTNKCKGYGFVDFDSPSAAQKAVTALKASGVQAQMAKQQEQDPTNLYISNLPLSMDEQELEGMLKPFGQVISTRILRDTSGTSRGVGFARMESTEKCEAIITHFNGKYIKTPPGVPAPSDPLLCKFADGGPKKRQNQGKFVQNGRAWPRNADMGVMALTYDPTTALQNGFYPAPYNITPNRMLAQSALSPYLSSPVSSYQRVTQTSPLQVPNPSWMHHHSYLMQPSGSVLTPGMDHPISLQPASMMGPLTQQLGHLSLSSTGTYMPTAAAMQGAYISQYTPVPSSSVSVEESSGQQNQVAVDAPSEHGVYSFQFNK [RBMS2] | 0.0678 | 0.474 |
| MLPEAGSLWLLKLLRDIQLAQFYWPILEELNVTRPEHFDFVKPEDLDGIGMGRPAQRRLSEALKRLRSGPKSKNWVYKILGGFAPEHKEPTLPSDSPRHLPEPEGGLKCLIPEGAVCRGELLGSGCFGVVHRGLWTLPSGKSVPVAVKSLRVGPEGPMGTELGDFLREVSVMMNLEHPHVLRLHGLVLGQPLQMVMELAPLGSLHARLTAPAPTPPLLVALLCLFLRQLAGAMAYLGARGLVHRDLATRNLLLASPRTIKVADFGLVRPLGGARGRYVMGGPRPIPYAWCAPESLRHGAFSSASDVWMFGVTLWEMFSGGEEPWAGVPPYLILQRLEDRARLPRPPLCSRALYSLALRCWAPHPADRPSFSHLEGLLQEAGPSEACCVRDVTEPGALRMETGDPITVIEGSSSFHSPDSTIWKGQNGRTFKVGSFPASAVTLADAGGLPATRPVHRGTPARGDQHPGSIDGDRKKANLWDAPPARGQRRNMPLERMKGISRSLESVLSLGPRPTGGGSSPPEIRQARAVPQGPPGLPPRPPLSSSSPQPSQPSRERLPWPKRKPPHNHPMGMPGARKAAALSGGLLSDPELQRKIMEVELSVHGVTHQECQTALGATGGDVVSAIRNLKVDQLFHLSSRSRADCWRILEHYQWDLSAASRYVLARP [TNK1] | -0.0434 | 0.0271 |
| MLRWTRAWRLPREGLGPHGPSFARVPVAPSSSSGGRGGAEPRPLPLSYRLLDGEAALPAVVFLHGLFGSKTNFNSIAKILAQQTGRRVLTVDARNHGDSPHSPDMSYEIMSQDLQDLLPQLGLVPCVVVGHSMGGKTAMLLALQRPELVERLIAVDISPVESTGVSHFATYVAAMRAINIADELPRSRARKLADEQLSSVIQDMAVRQHLLTNLVEVDGRFVWRVNLDALTQHLDKILAFPQRQESYLGPTLFLLGGNSQFVHPSHHPEIMRLFPRAQMQTVPNAGHWIHADRPQDFIAAIRGFLV [ABHD11] | 0.0439 | 0.492 |
| MMAGCGEIDHSINMLPTNRKANESCSNTAPSLTVPECAICLQTCVHPVSLPCKHVFCYLCVKGASWLGKRCALCRQEIPEDFLDKPTLLSPEELKAASRGNGEYAWYYEGRNGWWQYDERTSRELEDAFSKGKKNTEMLIAGFLYVADLENMVQYRRNEHGRRRKIKRDIIDIPKKGVAGLRLDCDANTVNLARESSADGADSVSAQSGASVQPLVSSVRPLTSVDGQLTSPATPSPDASTSLEDSFAHLQLSGDNTAERSHRGEGEEDHESPSSGRVPAPDTSIEETESDASSDSEDVSAVVAQHSLTQQRLLVSNANQTVPDRSDRSGTDRSVAGGGTVSVSVRSRRPDGQCTVTEV [RNF146] | -0.158 | -0.244 |
| MMVESASETIRSAPSGQNGVGSLSGQADGSSGGATGTTASGTGREVTTGADSNGEMSPAELLHFQQQQALQVARQFLLQQASGLSSPGNNDSKQSASAVQVPVSVAMMSPQMLTPQQMQQILSPPQLQALLQQQQALMLQQLQEYYKKQQEQLHLQLLTQQQAGKPQPKEALGNKQLAFQQQLLQMQQLQQQHLLNLQRQGLVSLQPNQASGPLQTLPQAAVCPTDLPQLWKGEGAPGQPAEDSVKQEGLDLTGTAATATSFAAPPKVSPPLSHHTLPNGQPTVLTSRRDSSSHEETPGSHPLYGHGECKWPGCETLCEDLGQFIKHLNTEHALDDRSTAQCRVQMQVVQQLEIQLAKESERLQAMMAHLHMRPSEPKPFSQPLNPVPGSSSFSKVTVSAADSFPDGLVHPPTSAAAPVTPLRPPGLGSASLHGGGPARRRSSDKFCSPISSELAQNHEFYKNADVRPPFTYASLIRQAILETPDRQLTLNEIYNWFTRMFAYFRRNTATWKNAVRHNLSLHKCFVRVENVKGAVWTVDEREYQKRRPPKMTGSPTLVKNMISGLSYGALNASYQAALAESSFPLLNSPGMLNPGSASSLLPLSHDDVGAPVEPLPSNGSSSPPRLSPPQYSHQVQVKEEPAEAEEDRQPGPPLGAPNPSASGPPEDRDLEEELPGEELS [FOXP4] | -0.162 | 0.393 |
| MNMIWRNSISCLRLGKVPHRYQSGYHPVAPLGSRILTDPAKVFEHNMWDHMQWSKEEEAAARKKVKENSAVRVLLEEQVKYEREASKYWDTFYKIHKNKFFKDRNWLLREFPEILPVDQKPEEKARESSWDHVKTSATNRFSRMHCPTVPDEKNHYEKSSGSSEGQSKTESDFSNLDSEKHKKGPMETGLFPGSNATFRILEVGCGAGNSVFPILNTLENSPESFLYCCDFASGAVELVKSHSSYRATQCFAFVHDVCDDGLPYPFPDGILDVILLVFVLSSIHPDRTLFI [METTL8] | 0.054 | -0.312 |
| MNPLTKVKLINELNEREVQLGVADKVSWHSEYKDSAWIFLGGLPYELTEGDIICVFSQYGEIVNINLVRDKKTGKSKGFCFLCYEDQRSTILAVDNFNGIKIKGRTIRVDHVSNYRAPKDSEEIDDVTRQLQEKGCGARTPSPSLSESSEDEKPTKKHKKDKKEKKKKKKEKEKADREVQAEQPSSSSPRRKTVKEKDDTGPKKHSSKNSERAQKSEPREGQKLPKSRTAYSGGAEDLERELKKEKPKHEHKSSSRREAREEKTRIRDRGRSSDAHSSWYNGRSEGRSYRSRSRSRDKSHRHKRARRSRERESSNPSDRWRH [RBMX2] | 0.59 | -1.17 |
